Some results are limits rather than exact numbers.

The target in the experiment is ELMSAN1 (human (endogenous in 143B)) (UniProt Q6PJG2). The experiment in a line: affinity purification with mass spectrometry.
Chain of UniProt Q6PJG2 (Q6PJG2 whole entry): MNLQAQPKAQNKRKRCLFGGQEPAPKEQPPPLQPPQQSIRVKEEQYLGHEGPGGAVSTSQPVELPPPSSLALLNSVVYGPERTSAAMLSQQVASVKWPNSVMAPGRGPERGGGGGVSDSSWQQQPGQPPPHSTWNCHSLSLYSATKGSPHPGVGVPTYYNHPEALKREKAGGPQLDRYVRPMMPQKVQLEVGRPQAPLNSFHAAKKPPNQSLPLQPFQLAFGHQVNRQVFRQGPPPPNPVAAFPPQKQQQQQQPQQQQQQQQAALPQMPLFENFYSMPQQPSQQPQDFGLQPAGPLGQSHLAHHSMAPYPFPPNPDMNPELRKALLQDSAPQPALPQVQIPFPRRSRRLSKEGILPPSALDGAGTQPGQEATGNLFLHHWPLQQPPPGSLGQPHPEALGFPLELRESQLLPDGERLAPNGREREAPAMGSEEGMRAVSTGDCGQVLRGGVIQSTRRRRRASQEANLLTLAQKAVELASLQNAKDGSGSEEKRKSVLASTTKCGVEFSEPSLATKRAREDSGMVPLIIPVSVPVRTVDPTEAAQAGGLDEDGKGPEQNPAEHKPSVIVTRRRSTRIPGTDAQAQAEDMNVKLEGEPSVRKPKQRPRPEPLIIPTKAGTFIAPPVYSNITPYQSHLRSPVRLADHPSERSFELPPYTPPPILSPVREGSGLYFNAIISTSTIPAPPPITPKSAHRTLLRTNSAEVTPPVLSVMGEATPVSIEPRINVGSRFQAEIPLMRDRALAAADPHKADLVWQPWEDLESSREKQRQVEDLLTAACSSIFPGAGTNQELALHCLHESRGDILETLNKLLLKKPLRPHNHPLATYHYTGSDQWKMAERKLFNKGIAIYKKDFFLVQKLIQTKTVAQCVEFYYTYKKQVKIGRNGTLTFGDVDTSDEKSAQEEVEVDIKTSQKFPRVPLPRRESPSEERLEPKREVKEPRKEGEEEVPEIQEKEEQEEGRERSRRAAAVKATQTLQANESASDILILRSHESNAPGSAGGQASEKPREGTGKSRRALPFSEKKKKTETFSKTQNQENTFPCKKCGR

With “PDHX (from UniProt O00330 54-501) (natural protein)”, the fold decrease in binding with ISX9 against DMSO was greater than 100 fold.

The values above are taken from article doi:10.1101/2025.04.25.650293.
